In the test the target is T1, human transferrin receptor (BIAcore, construct not stated) (human, UniProt P02786 89-760).
T1 construct: also called huTfR
Put plainly: SPR, 25 C.

By koff is commonly meant the rate constant with which the complex falls apart. Higher therefore signals fast dissociation.

T1 sequence (P02786 89-760): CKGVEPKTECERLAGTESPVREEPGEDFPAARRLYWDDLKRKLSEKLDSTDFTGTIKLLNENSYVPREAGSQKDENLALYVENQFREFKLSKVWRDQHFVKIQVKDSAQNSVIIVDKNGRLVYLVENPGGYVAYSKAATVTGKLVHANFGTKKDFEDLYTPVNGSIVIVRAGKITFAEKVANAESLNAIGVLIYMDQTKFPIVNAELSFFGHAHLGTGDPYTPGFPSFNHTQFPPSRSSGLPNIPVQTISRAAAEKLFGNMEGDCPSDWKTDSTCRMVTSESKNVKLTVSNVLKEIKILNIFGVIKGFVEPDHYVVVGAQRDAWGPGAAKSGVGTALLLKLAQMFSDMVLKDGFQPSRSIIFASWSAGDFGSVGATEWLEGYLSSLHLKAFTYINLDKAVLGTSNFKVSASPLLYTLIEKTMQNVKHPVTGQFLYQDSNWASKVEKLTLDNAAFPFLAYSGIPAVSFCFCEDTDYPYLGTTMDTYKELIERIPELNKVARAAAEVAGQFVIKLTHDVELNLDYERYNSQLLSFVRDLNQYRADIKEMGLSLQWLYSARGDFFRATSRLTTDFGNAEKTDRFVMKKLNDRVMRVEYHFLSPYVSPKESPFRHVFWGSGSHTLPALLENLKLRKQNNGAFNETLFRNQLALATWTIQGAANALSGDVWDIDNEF

B1: clone 299 VH 0 (rb) / VL 5 (antibody, V domains shown)
VH: QSMEESGGRLVTPGTPLTLTCTVSGFSLSSYAMSWVRQAPGKGLEWIGYIWSGGSTDYASWAKGRFTISKTSTTVDLKITSPTTEDTATYFCARRYGTSYPDYGDANGFDPWGPGTLVTVSS
VL: DIQMTQSPSSLSASVGDRVTITCRASQSISSYLSWYQQKPGKAPKLLIYRASTLASGVPSRFSGSGSGTDFTLTISSLQPEDFATYYCQQSYSSSNVDNTFGGGTKVEIK
B1 had an off-rate (koff) of 0.00194 s⁻¹.

B2: clone 299 VH 0 (rb) / VL 14 (antibody, V domains shown)
VH: QSMEESGGRLVTPGTPLTLTCTVSGFSLSSYAMSWVRQAPGKGLEWIGYIWSGGSTDYASWAKGRFTISKTSTTVDLKITSPTTEDTATYFCARRYGTSYPDYGDANGFDPWGPGTLVTVSS
VL: DIVMTQSPDSLAVSLGERATINCKSSQSISSYLSWYQQKPGQRPKLLIYRASTLASGVPDRFSGSGSGTDFTLTISSLQAEDVAVYYCQQSYSSSNVDNTFGGGTKVEIK
B2 yielded a koff of 0.00178 s⁻¹.

B3: clone 299 VH 0 (rb) / VL 12 (antibody, V domains shown)
VH: QSMEESGGRLVTPGTPLTLTCTVSGFSLSSYAMSWVRQAPGKGLEWIGYIWSGGSTDYASWAKGRFTISKTSTTVDLKITSPTTEDTATYFCARRYGTSYPDYGDANGFDPWGPGTLVTVSS
VL: DIQMTQSPSSLSASVGDRVTITCRASQSISSYLAWYQQKPGKAPKLLIYRASTLASGVPSRFSGSRSGTDFTLTISSLQPEDFATYYCQQHYSSSNVDNTFGGGTKVEIK
B3 registered a koff of 0.00541 s⁻¹.

B4: clone 299 VH 0 (rb) / VL 15 (antibody, V domains shown)
VH: QSMEESGGRLVTPGTPLTLTCTVSGFSLSSYAMSWVRQAPGKGLEWIGYIWSGGSTDYASWAKGRFTISKTSTTVDLKITSPTTEDTATYFCARRYGTSYPDYGDANGFDPWGPGTLVTVSS
VL: DIVMTQSPDSLAVSLGERATINCKSSQSISSYLIWYQQKPGQPPKLLIYRASTLASGVPDRFSGSGSGTDFTLTISSLQAEDVAVYYCQQAYSSSNVDNTFGGGTKVEIK
In turn, B4 yielded an off-rate constant (koff) of 0.00663 s⁻¹.

B5: clone 299 VH 18 / VL 9-NYA (antibody, V domains shown)
VH: QVQLQESGPGLVKPSQTLSLTCTVSGFSLSSYAMSWIRQHPGKGLEWIGYIWSGGSTDYAPSLKSRVTISVDTSKNQFSLKLSSVTAADTAVYYCARRYGTSYPDYGDANGFDPWGQGTLVTVSS
VL: AIQLTQSPSSLSASVGDRVTITCRASQSISSYLAWYQQKPGKAPKLLIYRASTLASGVPSRFSGSGSGTDFTLTISSLQPEDFATYYCQQNYASSNVDNTFGGGTKVEIK
Molecule B5 gave a koff of 0.00221 s⁻¹.

B6: clone 299 VH 0 (rb) / VL 17 (antibody, V domains shown)
VH: QSMEESGGRLVTPGTPLTLTCTVSGFSLSSYAMSWVRQAPGKGLEWIGYIWSGGSTDYASWAKGRFTISKTSTTVDLKITSPTTEDTATYFCARRYGTSYPDYGDANGFDPWGPGTLVTVSS
VL: AIQLTQSPSSLSASVGDRVTITCRASQSISSYLAWYQQKPGKAPKLLIYRASTLASGVPSRFSGSGSGTDFTLTISSLQPEDFATYYCQQTYSSSNVDNTFGGGTKVEIK
For B6, the koff came out at 0.00149 s⁻¹.

B7: clone 299 VH 0 (rb) / VL 7 (antibody, V domains shown)
VH: QSMEESGGRLVTPGTPLTLTCTVSGFSLSSYAMSWVRQAPGKGLEWIGYIWSGGSTDYASWAKGRFTISKTSTTVDLKITSPTTEDTATYFCARRYGTSYPDYGDANGFDPWGPGTLVTVSS
VL: AIQLTQSPSSLSASVGDRVTITCRASQSISSYLAWYQQKPGKAPKLLIYRASTLASGVPSRFSGSGSGTDFTLTISSLQPEDFATYYCQQSYSSSNVDNTFGGGTKVEIK
For the molecule B7, the off-rate constant (koff) is 0.00463 s⁻¹.

B8: clone 299 VH 0 (rb) / VL 10 (antibody, V domains shown)
VH: QSMEESGGRLVTPGTPLTLTCTVSGFSLSSYAMSWVRQAPGKGLEWIGYIWSGGSTDYASWAKGRFTISKTSTTVDLKITSPTTEDTATYFCARRYGTSYPDYGDANGFDPWGPGTLVTVSS
VL: DIQMTQSPSSLSASVGDRVTITCRASQSISSYLSWYQQKPGKAPKLLIYRASTLASGVPSRFSGSRSGTDFTLTISSLQPEDFATYYCQQSYSSSNVDNTFGGGTKVEIK
B8 had a koff of 0.00188 s⁻¹.

B9: clone 299 VH 0 (rb) / VL 6 (antibody, V domains shown)
VH: QSMEESGGRLVTPGTPLTLTCTVSGFSLSSYAMSWVRQAPGKGLEWIGYIWSGGSTDYASWAKGRFTISKTSTTVDLKITSPTTEDTATYFCARRYGTSYPDYGDANGFDPWGPGTLVTVSS
VL: AIQLTQSPSSLSASVGDRVTITCRASQSISSYLSWYQQKPGKAPKLLIYRASTLASGVPSRFSGSGSGTDFTLTISSLQPEDFATYYCQQSYSSSNVDNTFGGGTKVEIK
For the molecule B9, the koff was found to be 0.0019 s⁻¹.

B10: clone 299 VH 0 (rb) / VL 8 (antibody, V domains shown)
VH: QSMEESGGRLVTPGTPLTLTCTVSGFSLSSYAMSWVRQAPGKGLEWIGYIWSGGSTDYASWAKGRFTISKTSTTVDLKITSPTTEDTATYFCARRYGTSYPDYGDANGFDPWGPGTLVTVSS
VL: AYQLTQSPSSLSASVGDRVTITCRASQSISSYLSWYQQKPGKAPKLLIYRASTLASGVPSRFSGSGSGTDFTLTISSLQPEDFATYYCQQSYSSSNVDNTFGGGTKVEIK
B10 returned a koff of 0.00139 s⁻¹.

B11: clone 299 VH 11 / VL 9-NYA (antibody, V domains shown)
VH: QQLLESGGGLVQPGGSLRLSCAASGFSLSSYAMSWVRQAPGKGLEWVGYIWSGGSTDYADSVKGRFTISRDNSKNTLYLQMNSLRAEDTAVYYCARRYGTSYPDYGDANGFDPWGQGTLVTVSS
VL: AIQLTQSPSSLSASVGDRVTITCRASQSISSYLAWYQQKPGKAPKLLIYRASTLASGVPSRFSGSGSGTDFTLTISSLQPEDFATYYCQQNYASSNVDNTFGGGTKVEIK
Molecule B11 returned an off-rate (koff) of 0.00242 s⁻¹.

B12: clone 299 VH 9 / VL 9-NYA (antibody, V domains shown)
VH: QQLLESGGGLVQPGGSLRLSCAASGFTFSSYAMSWVRQAPGKGLEWVGYIWSGGSTDYADSVKGRFTISRDNSKNTLYLQMNSLRAEDTAVYYCAKRYGTSYPDYGDANGFDPWGQGTLVTVSS
VL: AIQLTQSPSSLSASVGDRVTITCRASQSISSYLAWYQQKPGKAPKLLIYRASTLASGVPSRFSGSGSGTDFTLTISSLQPEDFATYYCQQNYASSNVDNTFGGGTKVEIK
B12 yielded a koff of 0.00252 s⁻¹.

B13: clone 299 VH 12 / VL 9-NYA (antibody, V domains shown)
VH: QVQLQESGPGLVKPSETLSLTCTVSGFSLSSYAMSWIRQPPGKGLEWIGYIWSGGSTDYNPSLKSRVTISVDTSKNQFSLKLSSVTAADTAVYYCARRYGTSYPDYGDANGFDPWGQGTLVTVSS
VL: AIQLTQSPSSLSASVGDRVTITCRASQSISSYLAWYQQKPGKAPKLLIYRASTLASGVPSRFSGSGSGTDFTLTISSLQPEDFATYYCQQNYASSNVDNTFGGGTKVEIK
The molecule B13 gave a koff of 0.00219 s⁻¹.

B14: clone 299 VH 13 / VL 9-NYA (antibody, V domains shown)
VH: QVQLQESGPGLVKPSETLSLTCTVSGFSLSSYAMSWIRQPPGKGLEWIGYIWSGGSTDYNPSLKSRVTISVDTSKNQVSLKLSSVTAADTAVYYCARRYGTSYPDYGDANGFDPWGQGTLVTVSS
VL: AIQLTQSPSSLSASVGDRVTITCRASQSISSYLAWYQQKPGKAPKLLIYRASTLASGVPSRFSGSGSGTDFTLTISSLQPEDFATYYCQQNYASSNVDNTFGGGTKVEIK
As for B14, the koff is 0.00139 s⁻¹.

B15: clone 299 VH 20 / VL 0 (rb) (antibody, V domains shown)
VH: QSMQESGPGLVKPSQTLSLTCTVSGFSLSSYAMSWIRQHPGKGLEWIGYIWSGGSTDYAPSLKSRVTISVDTSKNQVSLKLSSVTAADTAVYYCARRYGTSYPDYGDANGFDPWGQGTLVTVSS
VL: AYDMTQTPASVEVAVGGTVTIKCQASQSISSYLSWYQQKPGQRPKLLIYRASTLASGVSSRFKGSGSGTQFTLTISGVECADAATYYCQQCYSSSNVDNTFGGGTEVVVK
B15 gave a koff of 0.00111 s⁻¹.

B16: clone 299 VH 16 / VL 0 (rb) (antibody, V domains shown)
VH: QQLQESGPGLVKPSETLSLTCTVSGFSLSSYAMSWVRQPPGKGLEWIGYIWSGGSTDYNPSLKSRVTISVDTSKNQVSLKLSSVTAADTAVYYCARRYGTSYPDYGDANGFDPWGPGTLVTVSS
VL: AYDMTQTPASVEVAVGGTVTIKCQASQSISSYLSWYQQKPGQRPKLLIYRASTLASGVSSRFKGSGSGTQFTLTISGVECADAATYYCQQCYSSSNVDNTFGGGTEVVVK
Consider B16, for which the koff amounted to 0.000653 s⁻¹.

B17: clone 299 VH 21 / VL 0 (rb) (antibody, V domains shown)
VH: QSMQESGPGLVKPSQTLSLTCTVSGFSLSSYAMSWIRQHPGKGLEWIGYIWSGGSTDYASWAKSRVTISVDTSKNQVSLKLSSVTAADTAVYYCARRYGTSYPDYGDANGFDPWGQGTLVTVSS
VL: AYDMTQTPASVEVAVGGTVTIKCQASQSISSYLSWYQQKPGQRPKLLIYRASTLASGVSSRFKGSGSGTQFTLTISGVECADAATYYCQQCYSSSNVDNTFGGGTEVVVK
In turn, B17 had an off-rate constant (koff) of 0.000565 s⁻¹.

B18: clone 299 VH 19 / VL 0 (rb) (antibody, V domains shown)
VH: QSMQESGPGLVKPSQTLSLTCTVSGFSLSSYAMSWIRQHPGKGLEWIGYIWSGGSTDYAPSLKSRVTISVDTSKNQFSLKLSSVTAADTAVYYCARRYGTSYPDYGDANGFDPWGQGTLVTVSS
VL: AYDMTQTPASVEVAVGGTVTIKCQASQSISSYLSWYQQKPGQRPKLLIYRASTLASGVSSRFKGSGSGTQFTLTISGVECADAATYYCQQCYSSSNVDNTFGGGTEVVVK
Take B18: the dissociation rate constant (koff) is 0.001 s⁻¹.

B19: clone 299 VH 17 / VL 0 (rb) (antibody, V domains shown)
VH: QQLQESGPGLVKPSETLSLTCTVSGFSLSSYAMSWVRQPPGKGLEWIGYIWSGGSTDYNPSLKSRVTISKDTSKNQVSLKLSSVTAADTAVYYCARRYGTSYPDYGDANGFDPWGPGTLVTVSS
VL: AYDMTQTPASVEVAVGGTVTIKCQASQSISSYLSWYQQKPGQRPKLLIYRASTLASGVSSRFKGSGSGTQFTLTISGVECADAATYYCQQCYSSSNVDNTFGGGTEVVVK
B19: the koff came to 0.000413 s⁻¹.

B20: clone 299 VH 22 / VL 0 (rb) (antibody, V domains shown)
VH: QSMQESGPGLVKPSQTLSLTCTVSGFSLSSYAMSWVRQHPGKGLEWIGYIWSGGSTDYASWAKSRVTISVDTSKNQVSLKLSSVTAADTAVYYCARRYGTSYPDYGDANGFDPWGQGTLVTVSS
VL: AYDMTQTPASVEVAVGGTVTIKCQASQSISSYLSWYQQKPGQRPKLLIYRASTLASGVSSRFKGSGSGTQFTLTISGVECADAATYYCQQCYSSSNVDNTFGGGTEVVVK
In turn, B20 showed an off-rate constant (koff) of 0.000506 s⁻¹.

B21: clone 299 VH 15 / VL 0 (rb) (antibody, V domains shown)
VH: QQLQESGPGLVKPSETLSLTCTVSGFSLSSYAMSWVRQPPGKGLEWIGYIWSGGSTDYNPSLKSRVTISVDTSKNQVSLKLSSVTAADTAVYYCARRYGTSYPDYGDANGFDPWGQGTLVTVSS
VL: AYDMTQTPASVEVAVGGTVTIKCQASQSISSYLSWYQQKPGQRPKLLIYRASTLASGVSSRFKGSGSGTQFTLTISGVECADAATYYCQQCYSSSNVDNTFGGGTEVVVK
As to B21, the koff was found to be 0.000763 s⁻¹.

The values are drawn from US20230220071A1 (Hoffmann-La Roche, published 2023).
